Test results from patent US6740739B1, “Substitutional variants of APO-2 ligand” (Genentech, Inc., priority 1998, dated 2004).

Assays:
9D cells = assay: Apoptosis by FACS (PI / FITC-annexin V); assay type: cell-based, human; settings: Apo-2 ligand 3 μg/ml, 24 hours, control 22.5
Method: Apoptotic activity of purified, soluble Apo-2 ligand (described in Example 3) was examined using several human lymphoid cell lines. In a first study, the effect of Apo-2 ligand on 9D cells (Genentech, Inc.), derived from Epstein-Barrvirus (EBV)-transformed human peripheral blood B cells, was examined. The 9D cells (5×10^4 cells/well in RPMI 1640 medium plus 10% fetal calf serum) were incubated for 24 hours with either a media control, Apo-2 ligand (3 μg/ml, prepared as described in Example 3 above), or anti-Apo-1 monoclonal antibody, CH11 (1 μg/ml) [described by Yonehara et al., J. Exp. Med., 169:1747-1756 (1989); commercially available from Medical and Biological Laboratories Co.]. […]
The effects of the Apo-2 ligand on the 9D cells, as well as on Raji cells (human Burkitt's lymphoma B cell line, ATCC CCL 86) and Jurkat cells (human acute T cell leukemia cell line, ATCC TIB 152) were further analyzed by FACS. […]
The 9D cells (FIG. 2B), Raji cells (FIG. 2C), and Jurkat cells (FIG. 2D) were incubated (1×10^6 cells/well) for 24 hours with a media control (left panels), Apo-2 ligand (3 μg/ml, prepared as described in Example 3) (center panels), or anti-Apo-1 ligand antibody, CH11 (1 μg/ml) (right panels). The cells were then washed, stained with PI and with fluorescein thiocyanate (FITC)-conjugatedannexin V (purchased from Brand Applications) and analyzed by flow cytometry. […]

293 = assay: Apoptosis by FACS, non-lymphoid tumor cell lines; assay type: cell-based, human; settings: Apo-2 ligand 3 μg/ml, 24 hours, control 12.3
Method: (§1) The effects of the Apo-2 ligand on the 9D cells, as well as on Raji cells (human Burkitt's lymphoma B cell line, ATCC CCL 86) and Jurkat cells (human acute T cell leukemia cell line, ATCC TIB 152) were further analyzed by FACS. The FACS analysis was conducted, using established criteria for apoptotic cell death, namely, the relation of fluorescence staining of the cells with two markers: (a) propidium iodide (“PI”) dye, which stains apoptotic but not live cells, and (b) a fluorescent derivative of the protein, annexin V, which binds to the exposed phosphatidylserine found on the surface of apoptotic cells, but not on live cells [Darzynkiewicz et al., Methods in Cell Biol., 41:15-38 (1994); Fadok et al., J. Immunol., 148:2207-2216 (1992); Koopman et al., Blood, 84:1415-1420 (1994)].
(§2) The 9D cells (FIG. 2B), Raji cells (FIG. 2C), and Jurkat cells (FIG. 2D) were incubated (1×10^6 cells/well) for 24 hours with a media control (left panels), Apo-2 ligand (3 μg/ml, prepared as described in Example 3) (center panels), or anti-Apo-1 ligand antibody, CH11 (1 μg/ml) (right panels). The cells were then washed, stained with PI and with fluorescein thiocyanate (FITC)-conjugatedannexin V (purchased from Brand Applications) and analyzed by flow cytometry. Cells negative for both PI and annexin V staining (quadrant 3) represent live cells; PI-negative, annexin V-positive staining cells (quadrant 4) represent early apoptotic cells; PI-positive, annexin V-positive staining cells (quadrant 2) represent primarily cells in late stages of apoptosis.
(§3) The effect of Apo-2 ligand on human non-lymphoid tumor cell lines was examined using the following cell lines: HeLa (derived from human cervical carcinoma, ATCC CCL 22); ME-180 (derived from human cervical carcinoma, ATCC HTB 33); MCF7 (derived from human breast carcinoma, ATCC HTB 22); U-937 (derived from human hystiocytic lymphoma, ATCC CRL 1593); A549 (derived from human lung carcinoma, ATCC CCL 185); and 293 (derived from an adenovirus-transformed human embryonic kidney cells, ATCC CCL 1573).
(§4) In the assay, 1×10^6 cells of each cell line were incubated for 24 hours with a media control, Apo-2 ligand (3 μg/ml, prepared as described in Example 3), or anti-Apo-1 monoclonal antibody, CH 11 (1 μg/m1). Following the incubation, apoptosis was measured by FACS analysis, as described in Example 4.

A549 = assay: Apoptosis by FACS, non-lymphoid tumor cell lines; assay type: cell-based, human; settings: Apo-2 ligand 3 μg/ml, 24 hours, control 16.5
Method: as §1, §2, §3, §4

HeLa = assay: Apoptosis by FACS, non-lymphoid tumor cell lines; assay type: cell-based, human; settings: Apo-2 ligand 3 μg/ml, 24 hours, control 5.3
Method: as §1, §2, §3, §4

MCF7 = assay: Apoptosis by FACS, non-lymphoid tumor cell lines; assay type: cell-based, human; settings: Apo-2 ligand 3 μg/ml, 24 hours, control 39.9
Method: as §1, §2, §3, §4

ME-180 = assay: Apoptosis by FACS, non-lymphoid tumor cell lines; assay type: cell-based, human; settings: Apo-2 ligand 3 μg/ml, 24 hours, control 8.6
Method: as §1, §2, §3, §4

U-937 = assay: Apoptosis by FACS, non-lymphoid tumor cell lines; assay type: cell-based, human; settings: Apo-2 ligand 3 μg/ml, 24 hours, control 3.6
Method: as §1, §2, §3, §4

[1] = tested on: HCT116 human colon carcinoma cells; assay: Tumor volume in nude mice, osmotic mini-pump infusion; assay type: in vivo; settings: E. coli-expressed Apo-2 ligand (aa 91-281/92-281) 10 mg/kg each day by intraperitoneal osmotic mini-pump; over 3 days; vehicle no change; FIG. 15
Method: (§5) In the experiment, the nude mice were injected subcutaneously with HCT116 human colon carcinoma cells (ATCC CCL 247) (1×10^6 cells) on each side of the animal. The tumors were then allowed to grow to reach approximately 1 cm diameter (approximately 10 days). On Day 0, the tumor volume was measured with calipers. Volume was calculated as π/6×ab^2, where a=length and b=width. Then osmotic mini-pumps (available from Alza Corp., Model 1003) were implanted intraperitoncally into each animal. The mini-pumps were loaded with either (1) control vehicle (20 mM Tris pH 7.5, 8% Trehalose. 0.01% Tween-20) or (2) Apo-2 ligand. Five animals in each group received either the control vehicle or Apo-2 ligand. The mini-pumps were calibrated to deliver each day 10 mg/kg Apo-2 ligand (10 mg/ml×2 μl/hour) or 2 μl/hour control vehicle.
(§6) On Day 3, the tumor volume was again measured, and the animals were sacrificed. […] There was no change in tumor volume in the vehicle group, but a marked reduction in tumor size occurred in mice infused with the Apo-2L. The treatment with the Apo-2L shrunk the tumors by about 50% over 3 days.

[2] = Examination of infused animals for gross toxicity; assay type: in vivo, nude mice; settings: E. coli-expressed Apo-2 ligand 10 mg/kg each day by mini-pump; Day 3
Method: as §5, §6

B1: Apo-2L: purified soluble His10-tagged human Apo-2 ligand, residues 114-281, from baculovirus-infected Sf9 cells (Example 3); used in Examples 4-14 (protein)
chain: MGHHHHHHHHHHSSGHIDDDDKHMVRERGPQRVAAHITGTRGRSNTLSSPNSKNEKALGRKINSWESSRSGHSFLSNLHLRNGELVIHEKGFYYIYSQTYFRFQEEIKENTKNDKQMVQYIYKYTSYPDPILLMKSARNSCWSKDAEYGLYSIYQGGIFELKENDRIFVSVTNEHLIDMDHEASFFGAFLVG
% apoptotic cells (9D cells): 92.4% | % apoptotic cells 293: 12.2% | % apoptotic cells (A549): 74.6% | % apoptotic cells (HeLa): 18.6% | % apoptotic cells (MCF7): 47.3% | % apoptotic cells (ME-180): 80.7% | % apoptotic cells (U-937): 62.3% | shrinkage of tumors (change in tumor volume) [1]: about 50% | gross evidence of toxicity [2]: did not reveal any gross evidence of toxicity
